Measurements as given in US20210395718A1, “NOVEL KETOSE 3-EPIMERASE” (NATIONAL UNIVERSITY CORPORATION KAGAWA UNIVERSITY, priority 2018, published 2021).

Columns and labels:
[1] = Thermal stability: residual activity after incubation at 60° C. for one hour; format: biochemical; settings: crude recombinant enzyme; after incubation at 60° C. for 1 hour
Method: Thermal stability of the enzyme was investigated by measuring the activity of the enzyme after incubation at 60° C. for one hour and finding its relative activity supposing that the activity at 60° C. under the reaction conditions (10 minutes) used for determining the optimum temperature in the above 2 shown in Table 2 was 100. As heat treatment conditions, the crude enzyme solution, a buffer (50 mM tris-HCl, pH 7.5), and 2 mM MgCl2 were used to give a total amount of 200 p1 and after retaining at 60° C. for one hour, the reaction mixture was cooled for 10 minutes in ice water. The residual enzyme activity was then measured by the conventional method.
The activity of each of the present enzyme (crude recombinant enzyme) and the crude enzyme of the control enzyme after incubation at 60° C. for 1 hour was measured and a relative activity of it was determined supposing that the activity at 60° C. under the reaction conditions (10 minutes) for determining the optimum temperature in the above 2 shown in Table 2 is 100. The relative activity was used as a heat resistance index of the enzyme. As heat treatment conditions, the crude enzyme solution, a buffer (50 mM tris-HCl, pH 7.5), and 2 mM MgCl2 were used to give a total amount of 200 p1 and after retaining at 60° C. for one hour, the reaction mixture was cooled for 10 minutes in ice water. The residual enzyme activity was measured by the conventional method.

[2] = Ketose 3-epimerase activity ratio (T70/T50) at reaction temperature of 70° C. to 50° C.; format: biochemical; settings: crude recombinant enzyme; ratio of activity at 70° C. to activity at 50° C., 10 min reaction
Method: An enzyme having higher heat resistance than an amino acid substitution-free wild type enzyme can be obtained by introducing mutation into the gene of the ketose 3-epimerase of the present invention and substituting the corresponding amino acid residue with another amino acid residue by a site-directed mutagenesis operation to prepare various amino acid-substituted mutants. The heat resistance is evaluated by two indices, that is, a ketose 3-epimerase activity ratio (T70/T50) at the reaction temperatures of 70° C. to 50° C. and a residual activity after incubation at 60° C. for one hour.
Heat resistance of the present enzyme (crude recombinant enzyme) and the crude enzyme of the control enzyme was investigated by measuring an activity at 70° C. and an activity at 50° C. under the reaction conditions (10 minutes) used for determining the optimum temperature in the above 2 shown in Table 2 and finding their ratio (T70/T50).

| Molecule | Residual activity (%) [1] | T70/T50 [2] |
| --- | --- | --- |
| Ketose 3-epimerase mutant 27: amino acid-substituted mutant of SEQ ID NO: 1 (protein, Arthrobacter histidinolovorans) MKIGCHGLVWTGRFDAEGIRYSVQKTKEAGFDLIEFPLMDPFSFDVATAKSALAEHGLTASASLGLSEATDVSSEDPAIVKAGEELLNRALDVLAELGATEFCGVIYSAMKKYMEPATEQGLSNSKAAIGRVVDRAAGLGINVSLEVVNRYETNVLNTGRQALSYLSDVKRPNLGVHLDTYHMNIEESDMFSPVLDTAEALKYVHIGESHRGYLGTGSVDFDNFFKALGRIGYDGPVVFESFSSAVVAPDLSRMLGIWRNLWADNEELGAHANAFIRDKLTAIKTIELH | 61.9% | 1.64 |
| Ketose 3-epimerase mutant 31: amino acid-substituted mutant of SEQ ID NO: 1 (protein, Arthrobacter histidinolovorans) MKIGCHGLVWTGRFDAEGIRYSVQKTKEAGFDLIEFPLMDPFSFDVATAKSALAEHGLTASASLGLSEATDVSSEDPAIVKAGEELLNRALDVLAELGATDFCGVIYSAMKKYMEPATEQGLSNSKAAVGRVVDRAAGLGINVSLEVVNRYETNVLNTGRQALSYLSDVKRPNLGVHLDTYHMNIEESDMFSPVLDTADALKYVHIGESHRGYLGTGSVDFDNFFKALGRIGYDGPVVFESFSSAVVAPDLSRMLGIWRNLWADNEELGAHANAFIRDKLTAIKTIELH | 58.1% | 1.54 |
| Ketose 3-epimerase mutant 37: amino acid-substituted mutant of SEQ ID NO: 1 (protein, Arthrobacter histidinolovorans) MKIGCHGLVWTGRFDAEGIRYSVQKTKEAGFDLIEFPLMDPFSFDVATAKSALAEHGLTASASLGLSEATDVSSEDPAIVKAGEELLNRALDVLAELGATDFCGVIYSSMKKYMEPATEQGLSNSKAAVGRVVDRAAGLGINVSLEVVNRYETNVLNTGRQALSYLSDVKRPNLGVHLDTYHMNIEESDMFSPVLDTAEALKYVHIGESHRGYLGTGSVDFDNFFKALGRIGYDGPVVFESFSSAVVAPDLSRMLGIWRNLWADNEELGAHANAFIRDKLTAIKTIELH | 63.3% | 1.07 |
| Ketose 3-epimerase mutant 33: amino acid-substituted mutant of SEQ ID NO: 1 (protein, Arthrobacter histidinolovorans) MKIGCHGLVWTGRFDAEGIRYSVQKTKEAGFDLIEFPLMDPFSFDVATAKSALAEHGLSVSASLGLSEATDVSSEDPAIVKAGEELLNRALDVLAELGATEFCGVIYSAMKKYMEPATEQGLSNSKAAVGRVVDRAAGLGINVSLEVVNRYETNVLNTGRQALSYLSDVKRPNLGVHLDTYHMNIEESDMFSPVLDTAEVLKYVHIGESHRGYLGTGNVDFDNFFKALGRIGYDGPVVFESFSSAVVAPDLSRMLGIWRNLWADNEELGAHANAFIRDKLTAIKTIELH | 91.0% | 1.46 |
| Ketose 3-epimerase mutant 35: amino acid-substituted mutant of SEQ ID NO: 1 (protein, Arthrobacter histidinolovorans) MKIGCHGLVWTGRFDAEGIRYSVQKTKEAGFDLIEFPLMDPFSFDVATAKSALAEHGLTASASLGLSEATDVSSEDPAIVKAGEELLNRALDVLAELGATDFCGVIYSAMKKYMEPATEQGLSNSKAAVGRIVDRAAGLGINVSLEVVNRYETNVLNTGRQALSYLSDVKRPNLGVHLDTYHMNIEESDMFSPVLDTAEALKYVHIGESHRGYLGTGSVDFDNFFKALGRIGYDGPVVFESFSSAVVAPDLSRMLGIWRNLWADNEELGAHANAFIRDKLTAIKTIELH | 69.2% | 1.34 |
| Ketose 3-epimerase mutant 29: amino acid-substituted mutant of SEQ ID NO: 1 (protein, Arthrobacter histidinolovorans) MKIGCHGLVWTGRFDAEGIRYSVQKTKEAGFDLIEFPLMDPFSFDVATAKSALAEYGLTASASLGLSEATDVSSEDPAIVKAGEELLNRALDVLAELGATDFCGVIYSAMKKYMEPATEQGLSNSKAAVGRVVDRAAGLGINVSLEVVNRYETNVLNTGRQALSYLSDVKRPNLGVHLDTYHMNIEESDMFSPVLDTAEALKYVHIGESHRGYLGTGSVDFDNFFKALGRIGYDGPVVFESFSSAVVAPDLSRMLGIWRNLWADNEELGAHANAFIRDKLTAIKTIELH | 56.8% | 1.58 |
| Ketose 3-epimerase mutant 36: amino acid-substituted mutant of SEQ ID NO: 1 (protein, Arthrobacter histidinolovorans) MKIGCHGLVWTGRFDAEGIRYSVQKTKEAGFDLIEFPLMDPFSFDVATAKSALAEHGLTASASLGLSEATDVSSEDPAIVKAGEELLNRALDVVAELGATDFCGVIYSAMKKYMEPATEQGLSNSKAAVGRVVDRAAGLGINVSLEVVNRYETNVLNTGRQALSYLSDVKRPNLGVHLDTYHMNIEESDMFSPVLDTAEALKYVHIGESHRGYLGTGSVDFDNFFKALGRIGYDGPVVFESFSSAVVAPDLSRMLGIWRNLWADNEELGAHANAFIRDKLTAIKTIELH | 57.0% | 1.30 |
| Ketose 3-epimerase mutant 32: amino acid-substituted mutant of SEQ ID NO: 1 (protein, Arthrobacter histidinolovorans) MKIGCHGLVWTGRFDAEGIRYSVQKTKEAGFDLIEFPLMDPFSFDVATAKSALAEHGLTASASLGLSEATDVSSEDSAIVKAGEELLNRALDVLAELGATDFCGVIYSAMKKYMEPATEQGLSNSKAAVGRVVDRAAGLGINVSLEVVNRYETNVLNTGRQALSYLSDVKRPNLGVHLDTYHMNIEESDMFSPVLDTAEALKYVHIGESHRGYLGTGSVDFDNFFKALGRIGYDGPVVFESFSSAVVAPDLSRMLGIWRNLWADNEELGAHANAFIRDKLTAIKTIELH | 39.9% | 1.53 |
| Ketose 3-epimerase mutant 28: amino acid-substituted mutant of SEQ ID NO: 1 (protein, Arthrobacter histidinolovorans) MKIGCHGLVWTGRFDAEGIRYSVQKTKEAGFDLIEFPLMDPFSFDVATAKSALAEHGLTASASLGLSEATDVSSEDPAIVKAGEELLNRALDVLAELGATEFCGVIYSAMKKYMEPATEQGLSNSKAAIGRVVDRAAGLGINVSLEVVNRYETNVLNTGRQALSYLSDVKRPNLGVHLDTYHMNIEESDMFSPVLDTAEVLKYVHIGESHRGYLGTGNVDFDNFFKALGRIGYDGPVVFESFSSAVVAPDLSRMLGIWRNLWADNEELGAHANAFIRDKLTAIKTIELH | 112.7% | 1.62 |
| Ketose 3-epimerase mutant 30: amino acid-substituted mutant of SEQ ID NO: 1 (protein, Arthrobacter histidinolovorans) MKIGCHGLVWTGRFDAEGIRYSVQKTKEAGFDLIEFPLMDPFSFDVATAKSALAEHGLTASASLGLSEATDVSSEDPAIVKAGEELLNRALDVLAELGATDFCGVIYSAMKKYMEPATEQGLSNSKAAVGRVVDRAAGLGINVALEVVNRYETNVLNTGRQALSYLSDVKRPNLGVHLDTYHMNIEESDMFSPVLDTAEALKYVHIGESHRGYLGTGSVDFDNFFKALGRIGYDGPVVFESFSSAVVAPDLSRMLGIWRNLWADNEELGAHANAFIRDKLTAIKTIELH | 66.9% | 1.57 |
| Ketose 3-epimerase mutant 34: amino acid-substituted mutant of SEQ ID NO: 1 (protein, Arthrobacter histidinolovorans) MKIGCHGLVWTGRFDAEGIRYSVQKTKEAGFDLIEFPLMDPFSFDVATAKSALAEHGLTASASLGLSEATDVSSEDPAIVKAGEELLNRALDVLAELGATDFCGVIYSAMKKYMEPATEQGLSNSKAVVGRVVDRAAGLGINVSLEVVNRYETNVLNTGRQALSYLSDVKRPNLGVHLDTYHMNIEESDMFSPVLDTAEALKYVHIGESHRGYLGTGSVDFDNFFKALGRIGYDGPVVFESFSSAVVAPDLSRMLGIWRNLWADNEELGAHANAFIRDKLTAIKTIELH | 57.2% | 1.38 |
